T1: Human BCMA (human, UniProt Q02223 1-54)
T1 sequence: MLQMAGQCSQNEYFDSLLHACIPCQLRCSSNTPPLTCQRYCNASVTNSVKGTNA


Legend:
[1] = biological target: T2, Human CD3ε (human, UniProt P07766 23-126); test: flow cytometry, human T cells
T2 construct: CD3 on T cells isolated from human whole blood
How it was run: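 First, cells were plated on ice at 2×10⁵ per well; second, antibody dilutions (top 3000 nM, 3-fold steps) were added for 2 h at 4° C; third, after washing, PE anti-human IgG Fc (final 8 ug/ml) was added for 1 h at 4° C. EC50 was then fitted from MFI versus concentration.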

[2] = biological target: T3, Monkey CD3 (monkey); test: flow cytometry, monkey T cells
T3 construct: whole, on cells; also called CD3 of monkey CD3 positive T cells

[3] = biological target: T1, Human BCMA; test: flow cytometry, human tumor cells (BCMA+)
Source text: 1) Cell preparation: T cells isolated from CD3-positive human whole blood were used for a CD3 end affinity detection of multifunctional antibody molecule; positive tumor cells of corresponding antigen were used for detecting affinity of tumor antigen; for example, CD38-positive MM. 1S cells (purchased from the Cell Resource Center of Shanghai Institutes for Biological Sciences, Chinese Academy of Sciences) or RPMI 8226 cells (purchased from the Cell Resource Center of Shanghai Institutes for Biological Sciences, Chinese Academy of Sciences) were used for CD38 antigen detection, and PD-L1 positive H358 cells (purchased from the Cell Resource Center of Shanghai Institutes for Biological Sciences, Chinese Academy of Sciences) were used for PD-L1 antigen detection, and so on. The cells were resuspended with 1% FBS-PBS, adjusted to a density of 4×10⁶/ml, and 50 μl of cells were taken from each well, and then plated at 2×10⁵ per well. Cell plating was operated on ice
2) Addition of the antibody: according to the experimental design, the antibody was diluted gradually, and dilution of antibody was operated on ice. For example, the initial concentration of antibody for dilution was 3000 nM, and the antibody was diluted by 3 times with 11 concentration gradients. The diluted antibody was added to a cell well at 50 μl per well, mixed well, and shaked and incubated at 4° C. 1100 rpm/min for 2 h; after washing, the cells were resuspend in 1% FBS-PBS, and a diluted secondary antibody PE anti-human IgG FC (Biolegend, 409304) was added with a final concentration of 8 ug/ml and a volume of 50 μl/well. At the same time, a well only added with cells and secondary antibody was set as a control, the components were mixed well, and incubated under shaking at 1100 rpm/min at 4° C. for 1 h;
5) Data analysis: the data was analyzed by a flow analysis software FlowJo 7.6 thereby obtaining an average fluorescence intensity of the specific antibody concentration, plotted by a Graphpad Prism 5 with the antibody concentration (nM) as an abscissa and the average fluorescence intensity as an ordinate; the EC50 value was calculated by the method of One site—Specific binding, and the EC50 value indicated the cell affinity of the antibody to the corresponding target antigen.

Row | Binder | EC50 [1] | EC50 [2] | EC50 [3]
1 | BCMA-M2-WT (bispecific antibody, human IgG1, kappa, structure 2 (fusion peptide 2, heavy, two light chains); BCMA x CD3; CH2 WT) not shown heavy: QLQLQESGPGLVKPSETLSLTCTVSGGSISSGSYFWGWIRQPPGKGLEWIGSIYYSGITYYNPSLKSRVTISVDTSKNQFSLKLSSVTAADTAVYYCARHDGAVAGLFDYWGQGTLVTVSSASTKGPSVFPLAPSSKSTSGGTAALGCLVKDYFPEPVTVSWNSGALTSGVHTFPAVLQSSGLYSLSSVVTVPSSSLGTQTYICNVNHKPSNTKVDKKVEPKSCDKTHTCPPCPAPELLGGPSVFLFPPKPKDTLMISRTPEVTCVVVDVSHEDPEVKFNWYVDGVEVHNAKTKPREEQYNSTYRVVSVLTVLHQDWLNGKEYKCKVSNKALPAPIEKTISKAKGQPREPQVCTLPPSRDELTKNQVSLSCAVKGFYPSDIAVEWESNGQPENNYKTTPPVLDSDGSFFLVSKLTVDKSRWQQGNVFSCSVMHEALHNRFTQKSLSLSPGK light: SYVLTQPPSVSVAPGQTARITCGGNNIGSKSVHWYQQPPGQAPVVVVYDDSDRPSGIPERFSGNSNGNTATLTISRVEAGDEAVYYCQVWDSSSDHVVFGGGTKLTVLRTVAAPSVFIFPPSDEQLKSGTASVVCLLNNFYPREAKVQWKVDNALQSGNSQESVTEQDSKDSTYSLSSTLTLSKADYEKHKVYACEVTHQGLSSPVTKSFNRGEC | 588 nM | 676 nM | 20.3 nM
2 | BCMA-M2-G2 (bispecific antibody, human IgG1, kappa, structure 2; BCMA x CD3; CH2 G2CH2) QLQLQESGPGLVKPSETLSLTCTVSGGSISSGSYFWGWIRQPPGKGLEWIGSIYYSGITYYNPSLKSRVTISVDTSKNQFSLKLSSVTAADTAVYYCARHDGAVAGLFDYWGQGTLVTVSSASTKGPSVFPLAPSSKSTSGGTAALGCLVKDYFPEPVTVSWNSGALTSGVHTFPAVLQSSGLYSLSSVVTVPSSSLGTQTYICNVNHKPSNTKVDKKVEPKSCDKTHTGGGSAAAQVQLVESGGGVVQPGRSLRLSCAASGFTFSTYAMNWVRQAPGKGLEWVARIRSKYNNYATYYADSVKDRFTISRDDSKNTLYLQMNSLRAEDTAVYYCARHGNFGNSYVSWFAYWGQGTLVTVSSGGGGSGGGGSGGGGSQTVVTQEPSLTVSPGGTVTLTCRSSTGAVTTSNYANWVQQKPGQAPRGLIGGTNKRAPGVPARFSGSLLGGKAALTLSGVQPEDEAEYYCALWYSNLWVFGGGTKVEIKGGGGSDKTHTCPPCPAPPVAGPSVFLFPPKPKDTLMISRTPEVTCVVVDVSHEDPEVQFNWYVDGVEVHNAKTKPREEQFNSTFRVVSVLTVVHQDWLNGKEYKCKVSNKGLPAPIEKTISKTKGQPREPQVYTLPPCRDELTKNQVSLWCLVKGFYPSDIAVEWESNGQPENNYKTTPPVLDSDGSFFLYSKLTVDKSRWQQGNVFSCSVMHEALHNHYTQKSLSLSPGK heavy: QLQLQESGPGLVKPSETLSLTCTVSGGSISSGSYFWGWIRQPPGKGLEWIGSIYYSGITYYNPSLKSRVTISVDTSKNQFSLKLSSVTAADTAVYYCARHDGAVAGLFDYWGQGTLVTVSSASTKGPSVFPLAPSSKSTSGGTAALGCLVKDYFPEPVTVSWNSGALTSGVHTFPAVLQSSGLYSLSSVVTVPSSSLGTQTYICNVNHKPSNTKVDKKVEPKSCDKTHTCPPCPAPPVAGPSVFLFPPKPKDTLMISRTPEVTCVVVDVSHEDPEVQFNWYVDGVEVHNAKTKPREEQFNSTFRVVSVLTVVHQDWLNGKEYKCKVSNKGLPAPIEKTISKTKGQPREPQVCTLPPSRDELTKNQVSLSCAVKGFYPSDIAVEWESNGQPENNYKTTPPVLDSDGSFFLVSKLTVDKSRWQQGNVFSCSVMHEALHNRFTQKSLSLSPGK light: SYVLTQPPSVSVAPGQTARITCGGNNIGSKSVHWYQQPPGQAPVVVVYDDSDRPSGIPERFSGNSNGNTATLTISRVEAGDEAVYYCQVWDSSSDHVVFGGGTKLTVLRTVAAPSVFIFPPSDEQLKSGTASVVCLLNNFYPREAKVQWKVDNALQSGNSQESVTEQDSKDSTYSLSSTLTLSKADYEKHKVYACEVTHQGLSSPVTKSFNRGEC | 515 nM | 591 nM | 19.1 nM

More lines, in order of falling EC50 [1], values ahead:

Row | EC50 [1] | EC50 [2] | EC50 [3] | Binder
3 | 613 nM | 668 nM | 23.8 nM | BCMA-M2-AG2 (bispecific antibody, human IgG1, kappa, structure 2; BCMA x CD3; CH2 AG2CH2) QLQLQESGPGLVKPSETLSLTCTVSGGSISSGSYFWGWIRQPPGKGLEWIGSIYYSGITYYNPSLKSRVTISVDTSKNQFSLKLSSVTAADTAVYYCARHDGAVAGLFDYWGQGTLVTVSSASTKGPSVFPLAPSSKSTSGGTAALGCLVKDYFPEPVTVSWNSGALTSGVHTFPAVLQSSGLYSLSSVVTVPSSSLGTQTYICNVNHKPSNTKVDKKVEPKSCDKTHTGGGSAAAQVQLVESGGGVVQPGRSLRLSCAASGFTFSTYAMNWVRQAPGKGLEWVARIRSKYNNYATYYADSVKDRFTISRDDSKNTLYLQMNSLRAEDTAVYYCARHGNFGNSYVSWFAYWGQGTLVTVSSGGGGSGGGGSGGGGSQTVVTQEPSLTVSPGGTVTLTCRSSTGAVTTSNYANWVQQKPGQAPRGLIGGTNKRAPGVPARFSGSLLGGKAALTLSGVQPEDEAEYYCALWYSNLWVFGGGTKVEIKGGGGSDKTHTCPPAPAPPVAGPSVFLFPPKPKDTLMISRTPEVTCVVVDVSHEDPEVQFNWYVDGVEVHNAKTKPREEQFNSTFRVVSVLTVVHQDWLNGKEYKCKVSNKGLPAPIEKTISKTKGQPREPQVYTLPPCRDELTKNQVSLWCLVKGFYPSDIAVEWESNGQPENNYKTTPPVLDSDGSFFLYSKLTVDKSRWQQGNVFSCSVMHEALHNHYTQKSLSLSPGK heavy: QLQLQESGPGLVKPSETLSLTCTVSGGSISSGSYFWGWIRQPPGKGLEWIGSIYYSGITYYNPSLKSRVTISVDTSKNQFSLKLSSVTAADTAVYYCARHDGAVAGLFDYWGQGTLVTVSSASTKGPSVFPLAPSSKSTSGGTAALGCLVKDYFPEPVTVSWNSGALTSGVHTFPAVLQSSGLYSLSSVVTVPSSSLGTQTYICNVNHKPSNTKVDKKVEPKSCDKTHTCPPAPAPPVAGPSVFLFPPKPKDTLMISRTPEVTCVVVDVSHEDPEVQFNWYVDGVEVHNAKTKPREEQFNSTFRVVSVLTVVHQDWLNGKEYKCKVSNKGLPAPIEKTISKTKGQPREPQVCTLPPSRDELTKNQVSLSCAVKGFYPSDIAVEWESNGQPENNYKTTPPVLDSDGSFFLVSKLTVDKSRWQQGNVFSCSVMHEALHNRFTQKSLSLSPGK light: SYVLTQPPSVSVAPGQTARITCGGNNIGSKSVHWYQQPPGQAPVVVVYDDSDRPSGIPERFSGNSNGNTATLTISRVEAGDEAVYYCQVWDSSSDHVVFGGGTKLTVLRTVAAPSVFIFPPSDEQLKSGTASVVCLLNNFYPREAKVQWKVDNALQSGNSQESVTEQDSKDSTYSLSSTLTLSKADYEKHKVYACEVTHQGLSSPVTKSFNRGEC
4 | 532 nM | 630 nM | 15.3 nM | BCMA-M2-FES (bispecific antibody, human IgG1, kappa, structure 2; BCMA x CD3; CH2 FES) QLQLQESGPGLVKPSETLSLTCTVSGGSISSGSYFWGWIRQPPGKGLEWIGSIYYSGITYYNPSLKSRVTISVDTSKNQFSLKLSSVTAADTAVYYCARHDGAVAGLFDYWGQGTLVTVSSASTKGPSVFPLAPSSKSTSGGTAALGCLVKDYFPEPVTVSWNSGALTSGVHTFPAVLQSSGLYSLSSVVTVPSSSLGTQTYICNVNHKPSNTKVDKKVEPKSCDKTHTGGGSAAAQVQLVESGGGVVQPGRSLRLSCAASGFTFSTYAMNWVRQAPGKGLEWVARIRSKYNNYATYYADSVKDRFTISRDDSKNTLYLQMNSLRAEDTAVYYCARHGNFGNSYVSWFAYWGQGTLVTVSSGGGGSGGGGSGGGGSQTVVTQEPSLTVSPGGTVTLTCRSSTGAVTTSNYANWVQQKPGQAPRGLIGGTNKRAPGVPARFSGSLLGGKAALTLSGVQPEDEAEYYCALWYSNLWVFGGGTKVEIKGGGGSDKTHTCPPCPAPEFEGGPSVFLFPPKPKDTLMISRTPEVTCVVVDVSHEDPEVKFNWYVDGVEVHNAKTKPREEQYNSTYRVVSVLTVLHQDWLNGKEYKCKVSNKALPASIEKTISKAKGQPREPQVYTLPPCRDELTKNQVSLWCLVKGFYPSDIAVEWESNGQPENNYKTTPPVLDSDGSFFLYSKLTVDKSRWQQGNVFSCSVMHEALHNHYTQKSLSLSPGK heavy: QLQLQESGPGLVKPSETLSLTCTVSGGSISSGSYFWGWIRQPPGKGLEWIGSIYYSGITYYNPSLKSRVTISVDTSKNQFSLKLSSVTAADTAVYYCARHDGAVAGLFDYWGQGTLVTVSSASTKGPSVFPLAPSSKSTSGGTAALGCLVKDYFPEPVTVSWNSGALTSGVHTFPAVLQSSGLYSLSSVVTVPSSSLGTQTYICNVNHKPSNTKVDKKVEPKSCDKTHTCPPCPAPEFEGGPSVFLFPPKPKDTLMISRTPEVTCVVVDVSHEDPEVKFNWYVDGVEVHNAKTKPREEQYNSTYRVVSVLTVLHQDWLNGKEYKCKVSNKALPASIEKTISKAKGQPREPQVCTLPPSRDELTKNQVSLSCAVKGFYPSDIAVEWESNGQPENNYKTTPPVLDSDGSFFLVSKLTVDKSRWQQGNVFSCSVMHEALHNRFTQKSLSLSPGK light: SYVLTQPPSVSVAPGQTARITCGGNNIGSKSVHWYQQPPGQAPVVVVYDDSDRPSGIPERFSGNSNGNTATLTISRVEAGDEAVYYCQVWDSSSDHVVFGGGTKLTVLRTVAAPSVFIFPPSDEQLKSGTASVVCLLNNFYPREAKVQWKVDNALQSGNSQESVTEQDSKDSTYSLSSTLTLSKADYEKHKVYACEVTHQGLSSPVTKSFNRGEC
